{
  "source": "patent US12428627B2",
  "about": "“Mutant p-hydroxyphenylpyruvate dioxygenase, and coding nucleic acid and use thereof” (Qingdao Kingagroot Chemical Compound Co., Ltd., priority 2018, dated 2025)",
  "key": {"[1]": {"tested_on": "Huaidao No. 5 rice seedlings", "test": "Gene-edited rice seedlings (base editing / homologous replacement of HPPD gene) on medium containing tembotrione", "assay_type": "in vivo", "details": "medium containing 0.4 μM tembotrione", "experimental": "The calli of Huaidao No. 5 (at least 3000 callis) were infected according to the aforesaid method for infecting rice callis with Agrobacterium. After being infected with Agrobacterium, the infected calli were transferred to a 50 mg/L hyg screening medium for screening culture. After three rounds (15 days×3) of screening, the blond calli with good growth state were picked out to differentiate in a differentiation medium, and 0.2 μM tembotrione was added during the differentiation process for screening. After for 3-4 weeks, about 1,500 seedlings with around 1 cm were obtained. As to the about 1,500 differentiated seedlings, the vast majority of which had been bleached, and only 4 seedlings remained normal green. The 4 seedlings were transplanted to a rooting medium containing 0.4 μM tembotrione and cultivated for 2 weeks, wherein two seedlings had been bleached, while the other two seedlings remained green (FIG. 14A). A small number of leaves were used to extract genomic DNA by CTAB method. PCR was carried out by using the primers oshppd54F: TTCCACCACGTCGAGCTC and Oshppd356R: […]. The amplified product was detected by 1% agarose electrophoresis and sequenced by Sanger sequencing method. […]"}, "rice HPPD (OsHPPD)": {"tested_on": "rice HPPD (OsHPPD)", "test": "Color reaction of recombinant E. coli expressing wild-type or mutant rice HPPD, cultured in 96-well plate in medium containing an HPPD-inhibiting herbicide and tyrosine", "assay_type": "cell-based, Oryza sativa", "details": "compound 101", "outline": "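E. coli clones expressing wild-type or single-site-mutant rice HPPD (residues 51 onward, NNK saturation mutagenesis, pET-44a) grown 24 h at 28 °C in 2×YT with 1 g/L L-Tyr, 0.1 mM IPTG, 0.01 mM MnCl2 and herbicide at 1–20 μM final (tembotrione 1.7 μM, mesotrione 10 μM). Brown homogentisate colour scored semi-quantitatively versus wild type.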"}},
  "data": [
    {"molecule": "H141R/G342D/D370N: three-site mutant rice HPPD (OsHPPD3M) (protein, listed as Oryza sativa, The amino acid sequence of Wild-Type rice HPPD protein (OsHPPD _WT)) MPPTPTPTATTGAVSAAAAAGENAGFRLVGHRRFVRANPRSDRFQALAFHHVELWCADAASAAGRFAFALGAPLAARSDLSTGNSAHASLLLRSASVAFLFTAPYGGDHGVGADAATTASIPSFSPGAARRFAADHGLAVRAVALRVADAADAFRASVAAGARPAFQPADLGGGFGLAEVELYGDVVLRFVSHPDGADAPFLPGFEGVSNPGAVDYGLRRFDHVVGNVPELAPVAAYISGFTGFHEFAEFTAEDVGTAESGLNSVVLANNAETVLLPLNEPVHGTKRRSQIQTYLDHHGGPGVQHIALASDDVLGTLREMRARSAMGGFEFLAPPPPNYYDDVRRRAGDVLSEEQINECQELGVLVDRDNQGVLLQIFTKPVGDRPTFFLEMIQRIGCMEKDESGQEYQKGGCGGFGKGNFSELFKSIEEYEKSLEAKQAPTVQGS", "values": [
      {"measurement": "state of successfully edited seedlings", "setting": "[1]", "value": "remain green"},
      {"measurement": "concentration of 101 required to have no significant color reaction", "setting": "rice HPPD (OsHPPD)", "value": 120, "unit": "µM"}
    ]}
  ]
}
